The target of experiment [1] is T1, full-length spike protein of SARS-CoV-2 (Wuhan strain) (SARS-CoV-2 (Wuhan strain), UniProt P0DTC2 14-1273).
T1 construct: whole, on cells; Expressed in 293T cells
The experiment in a line: ACE2 competition, 293T cells, antibody 4 µg/mL.

Experiment [2] has as its target T2, RBD derived from SARS-CoV-2 (Wuhan strain) (SARS-CoV-2 (Wuhan strain), UniProt P0DTC2 319-541).
T2 construct: domain: RBD
The experiment in a line: RBD beads, antibody 1 µg/mL, then labelled ACE2, flow cytometry. On the technique in general: A flow cytometer gives signals particle by particle.

Experiment [3] deals with T2, RBD derived from SARS-CoV-2 (Wuhan …). Kind of experiment: RBD beads, antibody 0.25 µg/mL, then labelled ACE2, flow cytometry.
Experiment [4] has the same target. Kind of experiment: RBD beads, antibody 4 µg/mL, then labelled ACE2, flow cytometry.
Experiment [5] has the same target. The experiment in a line: BLI (Octet), RBD of the Wuhan strain. Background: Biolayer interferometry detects binding as a change in optical thickness at a sensor tip.
The target in experiment [6] is T1, full-length spike protein of SARS-CoV-2 …. Kind of experiment: ACE2 competition, spike on 293T cells, antibody 4 µg/mL.
Experiment [7] concerns the target spike protein of SARS-CoV-2 (Wuhan strain) on pseudovirus (SARS-CoV-2 (Wuhan strain), UniProt P0DTC2 14-1254). Kind of experiment: cell-based or functional assay.

Usually Kd stands for the free concentration of one partner at which half of the binding sites on the other are occupied at equilibrium, for simple one-to-one binding. A lower Kd goes with higher affinity.

B1: Ab445 (antibody, V domains shown)
VH: EVQLVESGGGVVQPGTSPRLSCAASGFTFSNSGMHWVRQAPGKGLEWVAVIWYDGSKKYYVDSVKGRFTISRDNSKNTLYLQMNSLRAEDTAVYYCARDGTVAVRGVMNPFFDYWGQGTLVTVSS
VL: DIQLTQSPSSLSASVGDRVTITCQASQDISNYLNWYQQIPGKAPKLLIYDASNLETGVPSRFSGSGSGTDFTFTISSLQPEDIATYYCQQYDNLPYTFGQGTKLEIK
For the molecule B1, in experiment [1], the “ACE2 binding (no antibody = 100)” value came out at 0.4. In addition, the “fluorescence of ACE2 protein” value in experiment [2] was 326; in experiment [3] it was 2200; in experiment [4], 142. Further, in experiment [5], the affinity, expressed as Kd, was 0.0593 nM. Also, in experiment [6], the “binding amount (%) of ACE2 protein” value came to 0.4%.

B2: Ab159 (antibody, V domains shown)
VH: QVQLVESGGGLVKPGGSLRLSCAASGFTFNNAWMSWVRQAPGKGLEWVGRIKSKTDGGTTDYAAPVKGRFTFSRDDSKNTLYLQMSSLKTEDTALYYCTTADYDILTGTPASPYWGQGTLVTVSS
VL: DIQMTQSPSSLSASVGDRVTITCRASQSITNYLNWYQQKPGKAPKFLIYAASSLQGGVPSRFRGSGSGTDFTLTISSLQPEDFATYYCQQTYSTLWTFGQGTKVEIK
For B2, the “fluorescence of ACE2 protein” value in experiment [2] stood at 114; in experiment [3], 486; in experiment [4], 78.3. Also, in experiment [5], the dissociation constant (Kd) was 1.24 nM. In addition, in experiment [6], the “binding amount (%) of ACE2 protein” value was 0.5%. Moreover, the “IC50 of pseudovirus infection (luciferase)” value (“IC50 of pseudovirus infection” below) in experiment [7] is 0.00852 µg/mL.

B3: Ab188 (antibody, V domains shown)
VH: EVQLVESGGGLVQPGGSLRLSCAASGFTFINYKMNWVRQAPGKGLEWVSYISSGSDAIYYADSVKGRFTISRDNAKNSLYLQMNSLRDEDTALYYCARGGGYNYGECMDVWGQGTTVTVSS
VL: not shown
B3: the “ACE2 binding (no antibody = 100)” value in experiment [1] was 2.1. Also, the results for the “fluorescence of ACE2 protein” value in experiment [3] and in experiment [4] were 1570 and 148, respectively. The “binding amount (%) of ACE2 protein” value in experiment [6] turned out to be 1.1%. In addition, in experiment [7], the “IC50 of pseudovirus infection” value came out at 0.119 µg/mL.

B4: Ab308 (antibody, V domains shown)
VH: EVQLVQSGAEVKKPGSSVKVSCKASGGTFSSYAINWVRQAPGQGLEWMGRIIPMFGIANYAQKFQGRVTITANKSTSTAYMDLSSLRSEDTAVYYCARSQYYYDSSGYYFDYWGQGTLVTVSS
VL: not shown
Take B4: the “ACE2 binding (no antibody = 100)” value in experiment [1] came to 4.1. The “fluorescence of ACE2 protein” value in experiment [2] was 432; in experiment [3] it was 1390; in experiment [4], 59. This molecule also came in with a Kd in experiment [5] of 6.62 nM. Moreover, the “binding amount (%) of ACE2 protein” value in experiment [6] came to 3.5%.

B5: Ab336 (antibody, V domains shown)
VH: QVQLQQSGPGLVKPSETLSLTCTVSGGSISSYYWTWIRQPPGKGLEWIAYISYSGSTNYNPSLRSRVTISVDTSKNQFSLKLSSVTAADTAVYYCARDYYYDNSGYPDSYYGMDVWGQGTTVTVSS
VL: DIQLTQSPSTLSASVGDRVTITCRASQRISSWLAWYQQKPGKAPKLLIYKASTLQSGVPSRFSGSGSGTEFTLTISSLQPDDFATYYCQQYNSFSWTFGQGTKVEIK
Turning to B5, the “ACE2 binding (no antibody = 100)” value in experiment [1] stood at 1. For the same molecule, the results for the “fluorescence of ACE2 protein” value in experiment [2], in experiment [3] and in experiment [4] were 402, 1110 and 106, respectively. In addition, in experiment [5], the Kd was 2.35 nM. For the same molecule, the “binding amount (%) of ACE2 protein” value in experiment [6] is 5.3%.

B6: Ab287 (antibody, V domains shown)
VH: QVQLVQSGAEVKKPGSSVKVSCKASGDTFSSYAISWVRQAPGQGLEWMGRIILIFGVANYAQKFQGRVTITADKSTSTAYMELSSLRSEDTAVYYCARGGFYYDSSGYHLDYWGQGTLVTVSS
VL: EIVLTQSPGTLSLSPGERATLSCRPSQSVSSSYLAWYQQRPGQAPRLLIYGASSRATGIPDRFSGSGSGTDFTLTISRLEPEDFAVYYCHQYGSSPRTFGQGTKVEIK
As to B6, the “ACE2 binding (no antibody = 100)” value in experiment [1] came to 0.5. In addition, the “fluorescence of ACE2 protein” value in experiment [2] stood at 105; in experiment [3] it was 689; in experiment [4], 32.6. The “binding amount (%) of ACE2 protein” value in experiment [6] is 1.5%.

B7: Ab326 (antibody, V domains shown)
VH: EVQLVESGGGVVQPGRSLRLSCAASGFTFSHYPMHWVRQAPGRGLEWVAVISYDGSNQHYVDSVKGRFTISRDNSKNTLYLQMNSLRAEDTAVYFCASLITMIRGVPDYWGQGTLVTVSS
VL: DIQMTQSPSSLSASVGDRVTITCRASQSISNYLNWYQQKPGKAPNLLIFAASSLQSGVPSRFSGSGSGTEFTLTISSLQPEDFAAYYCLQTYSTPRTFGQGTRLEIK
As to B7, the “ACE2 binding (no antibody = 100)” value in experiment [1] was found to be 0.2. For the same molecule, the “fluorescence of ACE2 protein” value in experiment [2] is 39.9; in experiment [3], 516; in experiment [4], 38.4. The same molecule gave a Kd in experiment [5] of 0.0514 nM. Further, the “binding amount (%) of ACE2 protein” value in experiment [6] came out at 0.2%. In addition, the “IC50 of pseudovirus infection” value in experiment [7] was 0.031 µg/mL.

B8: Ab864 (antibody, V domains shown)
VH: EVQLVESGGGLVQPGRSLRLSCAASGFTFDDYAMHWVRQVPGKGLEWVSGISWNKGNIDYADSVKGRFTISRDNAKNSLYLQMNSLRPEDTGLYYCAKDCHYDSPGYFPNCLHSWGQGTLVTVSS
VL: EIVMTQSPSSLSASVGDRVTITCRASQGINTYLAWYQQKPGKAPKLLIYTASTLQSGVPSRFSGSGSGTDFTLTISSLQPEDFATYYCQQVHSYPLTFGGGTKVEIK
Consider B8, for which binding in experiment [5] was put at a Kd of 3.9 nM. Further, the “binding amount (%) of ACE2 protein” value in experiment [6] worked out at 0.4%. Moreover, the “IC50 of pseudovirus infection” value in experiment [7] amounted to 0.0084 µg/mL.

B9: Ab496 (antibody, V domains shown)
VH: EVQLVQSGPEVKKPGTSVKVSCKASGFIFTNSAVQWVRQARGQRLEWIGWIVVGSGNPNYAQKFQERVTITRDRSTSTAYMELSSLTSEDTAVYYCAAFPYYYDNSGSGPWGQGTLVTVSS
VL: DIQLTQSPSSLSASVGDRVTITCQASQDIRNNLNWYQQIPGKAPKLLIYDASNLETGVPSRFSGSASGTDFTFTISSLQPEDVATYYCQQYANLPPFTFGPGTKVDIK
With B9, the “ACE2 binding (no antibody = 100)” value in experiment [1] is 1.8. The results for the “fluorescence of ACE2 protein” value in experiment [2], in experiment [3] and in experiment [4] were 129, 2580 and 41.7, respectively. In experiment [6], the “binding amount (%) of ACE2 protein” value stood at 1.8%. For the same molecule, in experiment [7], the “IC50 of pseudovirus infection” value worked out at 0.00362 µg/mL.

B10: Ab354 (antibody, V domains shown)
VH: QVQLVQSGAEVKKPGASVTVSCKASGFLFTGYYMHWVRQAPGQGLEWMGWINPNSGASNYTRKFQGRVTMTRDTSISATYMKLSRLTSDDTAVYYCARDLAFSMVRGALDYWGQGTLVTVSS
VL: QLVLTQPPSASGSPGQSVTISCTGTSSDVGGYNYVSWYQHHPGKAPKLMIYEVSKRPSGVPDRFSGSKSGNTASLTVSGLQAEDEADYYCNSYAGNNNWVFGTGTKVTVL
For B10, the “ACE2 binding (no antibody = 100)” value in experiment [1] is 0.3. Moreover, the “fluorescence of ACE2 protein” value in experiment [2] came to 64.8; in experiment [3] it was 409; in experiment [4], 42.9. The molecule further displayed a Kd in experiment [5] of 0.0726 nM. In addition, the “binding amount (%) of ACE2 protein” value in experiment [6] was 0.3%. Further, the “IC50 of pseudovirus infection” value in experiment [7] came out at 0.0559 µg/mL.

These data come from patent US20230348573A1 (KEIO UNIVERSITY, published 2023).
